The data set in a line: label from the status in PepcDB records.

Experimental findings from a protein production outcome set (Wang et al. 2014) are described below.

Regarding “MSQMSPGQARVVDPILSTHARGYRQSTLIGKKLFPVAPVAQYGGKILTFGKEAFRLYNTKRAPGANTKRIDFGYEGDPYSIVPSALEAKVPRELMRDASQVPGIDLGARSVNTVLRIMALAHEHECAQIALDPAKYNADHKVKLVGSARWTSPDSDPTKDVETAKEAIADSIGMEPNRLMLSRKALSACKYHPKLIERVKYTRAESITIDMLKALWEVEEIVVGTARVATGANDSFGDVWGPDVWLGYVSDNPDPSVEEPSFGYTYQIEGHPLVEVPYWDNNAKSWIYGVSDDNTPALSGMLAGYLIEDAGLPAA”, the protein production result is given as “not failed”.

Consider “MSQPNFLLFITDQHRADHLGAYGNSQIRTPALDALARRGWLAERFYVASPICMPNRATLMTGRMPSAHGARHNGIPLSQRATTFVERLRQAGYGTALVGKSHLQNMTGNGPVWPRPQDPPAEGEAWAPEPGDYDQEWGPLWREDPAHDLATPFYGFSQVDLAVDHGDRVWGHYWRWLQREHPEVAAQAGPDHALPAPGFELVRAGQAWRTRVPESCSTTAYLGRRTMQALDGYAQRGQPFFIQCSFPDPHHPFTPPGKYWDMYRPEDVELPASFHASAAAGRQPPPHVQWMYAQRDSGRAVKHTPAMFACTEREAREAIALNYGSISHIDHTVGEVLAHLQRLGLADNTVVIFTSDHGDYLGDHQLLWKGPVHYQSVIRTPFIWADPAGAQGARSDALCSTTDIAPTILARAGLLPYNGIQGADLGALMRGEQAAPREAVLIEEEGQRVMFGFDKRVRMRTLQTGRYRMSVYHGVSWGELYDLREDPLELRNLWDEPGSAALRQDLLFQLAQNLIGHGETSPHPTALA”, for which the protein production entry was “failed”.

For the sequence “MSQPSALPAADSLAALHPGFKSSALVWLGVMVALWGFSWPVMKICVGLAPPLWLAAIRFTSSGLCLFAFLACRGELRLPPRADWPIVASVGGLQMMAFTGLGLVAMQYTDAGRAALLAYTTPLWAVVTAWIAFGQRPTAAQGVALCVGLSGVAVICSPADMDWGDSTVLLGNALLLLSAMCWSFVILHVRRHRFTARPIDLAPWQMLLAALPLIVIAASVDGSPLTIAWTPELIGFLIYFGPIATSACFVISSEYGRRVSAFAMSNITLGVPVIGMLSSIFLLGERVTVPLIIGLTLIVSGVALAALAVNRKAAAGRADTALRSQAGKANWPTA”, the protein production entry was “failed”.

As to “MSQPVAFVTGCSSGIGRALADAFQRAGYRVWASARKEDDVRALAEAGFQAVQLDVNDAAALARLAEELGVEAAGLDVLVNNAGYGAMGPLLDGGVEAMRRQFETNVFAVVGVTRALFPLLRRKSGLVVNVGSVSGVLVTPFAGAYCASKAAVHALSDALRLELAPFGVEVLEVQPGAIASNFGASASREMDSVVDERSPWWPLRRQIQARAAASQDNPTSAEDFARQLLAAVQRRPRPPLVRIGNGSRALPALARWLPRGLLERLLKKRFGLDTRL”, the protein production entry is on record as “failed”.

For “MSQQKSDFADDADIDESLDELASEETIEETVENLEANGFEVIVVNSADDALAELQSLIPAEASVMNGHSTTLEEIGFDEYLSDGDHGWESLPEEIWSIDDDAKRQAARRESQTADYFLGGINGISQTGELVAADRSGSRIGAYPFAASNVVIVSGVNKIVPTLEDALDRLETVAYPLENERAKEAYGVDSAIAKQLILRQELEEGRTTVVLIREHLGYLEHHHHHH”, the protein production result is given as “not failed”.

On to “MSQQPESDRTEGDLRNTGMELKHERTWDYELDRIVDAVEERDAMKVGLQFPEGLKRRAGRVADDLRRLLPDETTVLLSGQPCYGACDLDTYMMRRTDVFVHFGHSPMKESDKIIYVPLFSNVEVTPIMEEARAELAAPEEDDAVGLVTTAQHMNRFDEMQAWLEERGYTVETRRGDERLTHEGQVLGCNYASADVDADQILYVGGGKFHPLGLAMEHPDKKVIIADPVNNAVHVADTEQFMKQRYAAVHKAMDAEEWGVIFCTKIGQGRWDTAEEIVEANDNAYLITMDEVTPDRLTNFGFDAYVNTGCPRITTDDGPQFKQPMLTPGEYKIAIGEKPMDSLSFDTFHGTW”, for which the protein production entry is “failed”.

On to “MSQRTSEENRYEQLHRFAAKIHSTMQIDDVLEEIICTLQNVYPAFTYHLLLSHDNHVCGNLPIKTLALDESEGQPAALRAFLTGQVQCEETAAPPRSVLYAPIKGVQAVYGVIQIIAPYAAPFPKREINFISLLAGTAGRALENAKLYEQSRRLEHHHHHH”, for which the protein production entry is “not failed”.

For the sequence “MSQSSKARLSTDPTVFEAVLNNHTPMMQQYLRIKAQHPDMLMFYRMGDFYELFFDDAEKAAKLLDITLTRRGTSAGEPIKMAGVPYHAAEQYLAKLVKLGESVVICEQVGDPATSKGPVERQVTRIITPGTLTDAALLEDKRDSALLALLVHESTLGLAWLNLAAGQFSVMETSVNNLTAELERLKPAEILLPESLNLAGINDRVIQEKLCVKHLPAWQFDTAAAVRNLSRQFGTHDLSGFGCEDLDVSLGAASALLDYTRLTQGASIGHIKGLRVEREDTYLRMDATTRRNLEISETIRGDAAPTLLSLLDTCSTNMGSRLLCHWLHHPLRDRGLIQNRLNGVSFLMGEAGSGPCLSVRDCLKRVTDIERITARIALKSARPRDLSGLRDSLKRLPAVNNAVAGTATTSSGGSDVSAHVAALIHSMAPDNALVALLEKSLKEEPEVMLRTGGVIADGYDAELDELRAIHNNCDEFLLQLETREKARTGIANLKVEYNRLHGFYIEVTHAHTEKIPDDYRRRQTLKNAERYITPELKAFEEKALSAQSRALEREKLLYGELLDMLSQYIDHLQQVARSVAELDVLATFAERALALDYSLPLFTSDSVIEIQAGRHPVVEKQVDSFIANDVQLGARTGGRRQMLVITGPNMGGKSTYMRQVALIALLAHCGSFVPARSALIGPLDQLFTRIGASDDLAGGRSTFMMEMTEAANILHNATAQSLVLMDEVGRGTSTFDGLALAFAIARYLLEKNRSYTLFATHYFELTRLAEEFAQVANVHLRAVEHKHHIVFLHAVNEGPASQSYGLQVAALAGVPDPVIRTARRYLLKLEQEALSNQPQGDLFSRDDLFWKQDRMPEGSVDKNDSAPEHPVLALLRTIVPDDLSPKQALEQLYGLKKAAEKE”, the protein production entry was “failed”.

With “MSQTPSLAQLQPADAFLRRHLGPDPAEQQAMLAFLGVSTRAELIVQTVPPAIRLNRPLELPAALDEQAALARLRGYAGLNQRWTSLIGMGYYGTVTPSVILRNVLENPGWYTAYTPYQPEIAQGRLEALLNFQQLTIDLTGLDLASASLLDEATAAAEAMALARRVAKARSNRFFVDAHCHPQTVSVLRTRAEAFGFELVVDEPDNLAAHAVFGALLQYPDSRGEIRDLRPLIEALHGQQALACVASDLLALLLLTPPGELGADVVLGSAQRFGVPMGYGGPHAAFFATREGYKRAMPGRIIGVSRDARGNPALRMALQTREQHIRREKANSNICTAQVLLANIASLYAVYHGPQELKRIAQRVQRLTALLAAGLKSKGLRRLNRHFFDTLTYEVGERQAAILERARAARVNLRVVDDRRLALSLDETCDAATLATLFEIFLGAGHGLDVAHLDGGAVADGIPAVLQRTSAYLQHPVFNAHHSETEMLRYLRQLEGKDLALNQAMIPLGSCTMKLNASSEMIPITWPEFAELHPFVPREQAEGYRRMIDELEAWLRAITGFDAICMQPNSGAQGEYAGLLAIRRYHQSRGDSQRDICLIPASAHGTNPASAIMASMRVVIVECDPRGNVDLDDLRLKAAEAGDRLSCLMITYPSTHGVYEEGIGEICEVVHRHGGQVYMDGANLNAQVGLARPADIGADVSHMNLHKTFCIPHGGGGPGMGPIGVKRHLAPFVANHPVIRVEGPNPLNDAVSATPWGSASILPISWMYIAMMGPQLADASEVAILSANYLANRLDGAFPVLYRGRNERVAHECILDLRPLKAQTGITEEDVAKRLMDYGFHAPTMSFPVPGTLMVEPTESESKAELDRFVEAMLSIRAEIGKVESGAWPAEDNPLKRAPHTLADVTGIWQRPYEIAEAVTPSEHARAFKYWPAVNRVDNVYGDRNLFCACVPLDDYR”, the protein production entry is “failed”.

In the case of “MSQTSLEPLIISIIKLQILQLWLKLIAVGWNLGSNDDELYTELWKACAGPLVEVPRYGERVFYFPQGHMEQLVASTNQGVVDQEIPVFNLPPKILCRVLSVTLKAEHETDEVYAQITLQPEEDQSEPTSLDPPLVEPAKPTVDSFVKILTASDTSTHGGFSVLRKHATECLPSLDMTQPTPTQELVARDLHGYEWRFKHIFRGQPRRHLLTTGWSTFVTSKRLVAGDAFVFLRGETGDLRVGVRRLAKQQSTMPASVISSQSMRLGVLATASHAVTTTTIFVVFYKPRISQFIISVNKYMMAMKNGFSLGMRYRMRFEGEESPERIFTGTIIGSGDLSSQWPASKWRSLQIQWDEPSSIQRPNKVSPWEIEPFSPSALTPTPTQQQSKSKRSRPISEITGSPVASSFLSSFSQSHESNPSVKLLFQDPATERNSNKSVFSSGLQCKITEAPVTSSCRLFGFDLTSKPASATIPHDKQLISVDSNISDSTTKCQDPNSSNSPKEQKQQTSTRSRIKVQMQGTAVGRAVDLTLLRSYDELIKELEKMFEIEGELSPKDKWAIVFTDDEGDRMLVGDDPWNEFCKMAKKLFIYPSDEVKKMRSKSLLGDKGTIVNLESDQRTVHV”, the protein production result is given as “failed”.

Regarding “MSRAYTGALSYPQKIVIILLNKISSQHLKGDIFGGLTAAVIALPLALAFGVSSGAGAIAGVYGAIFVGFFAALFGGTATQISGPTGPMSVVMALVFTQLIGSHPDTGLVLAFTCVILAGLFQILFGLLKLGKYFVMVPYPVISGFMTGIGIIIILLQISPLLGSAGDSNALAALMNIPNALSQQNTLATVLGVITLLLMIYWPEKWTKIIPAPLFALITLTVISATFFSQQGISVIGEIPTGFPSLSMPSLSLESLSQVSYFAFLLAVLGAIDSLLTSMVADTLTETHHDSDKELIGQGIANTIAGFFGALPGAGATMRTAINIRAGGKTALSGIIHSITLLIVILWAGDYAQYIPHTVLAGMLIKVGLDIIDWRFIFQIKKVGLFSATLMLLVLLLTVFVDLITAVLVGMFIANLVTLDRLTHIQLDNITFKRGDELLSEISSNETNIALTDDIQNNLSKSLANTLLLEIDGPVSFAVSRELSRRFTENLAFTTLVIDLSNAKLIGTTTAIMITDLIDRTKSKEKTVLVITGNEKINQSLDKLSLATLLDKKYQFTNREQALQTLI”, the protein production entry was “failed”.

On to “MSRCASRFRISSKLSATFRTTHKSHQARNPAGFFVIMGYHKDATKRMIMVYTKVYPMRFGYIALGTPPIQSLDIRKMPKLTDMQIRAWIKSGERFEGRADGNGLYLRYREADKTPTWRFRYKLAGKSRAMLIGSYSELSLSKARETAKELSARVALGYDVAGEKQKRKTEALAKMEAEKNAMRVSELAAEYFERQILPRWKHPDILRRRIDKDINPCIGSMKVEDVKPRHIDDMLKGIVDRGAPTIATDVLRWTRRIFDYGIKRHALEINPCSAFEVADAGGKEAARDRWLTRDELIQLFKAMRTAKGFSRQNEITFKLLLALCVRKMELCAARWEEFDLDGAVWHLPEERSKNGDPIDIPLPSPAVEWLRELHTFSCNSAWVLPARKMQNRMIPHIQESTLPVALAKVRAEMPDVPNFTIHDFRRTARTHLAALGVDPVVAERCLNHRIKGVEGIYNRHQYFDERKAALAQWADLLVALESGKDYNVTPLRRAN”, for which the protein production entry was “failed”.

“MSRHPARTGEKTFFGHPFQLSTLFHIELWERFSFYGMQGILLIYLYYTADKGGLGIDKTLAGGIVGAYSGSVYLSTILGAWFADRVWGAEKTLFLSGIVVMLGHIVLAAAPGLYGLLIGLIFIALGSGGVKSTASSMVGALYEQDEMRPLRDAGFSIFYIAINIGGFLGPLLTGLLQENIGFHYGFGAAAVGMAFGLWRYSLGRKNLPHPTVPHPLSKGQGKTAAAVGITLIAALATAIKTGLVNLDNFSGILLSTVILAVIAYFARLLTNPRVSSDNKRHIIAYIPLFLTICMFWAVWFQIYTVATVYFDETVNRTIGSFTVPVAWKDSMQSLWVILFSGLMAAMWTKMGRKQPKTPLKFAMAVFVTGASFLGFVPFISSGTPMPIAVFALIVLAITIGELMISPIALSISTKIAPPLFKTQMVALNFLAFSLGFTLGGVLFEKGYQAGDEIGFYRLLFYIGAATGFLLLLLVPKLNKMLEGTD”: the protein production result was “failed”.
